{
  "source": "patent US6451992",
  "system": "thrombostasin (thrombin inhibitor of Haematobia irritans saliva; tested as whole serotonin-induced saliva)",
  "data": [
    {"substance": "bovine thrombin", "values": [
      {"measurement": "rates of hydrolysis of chromogenic substrate S238 (2.5-100 µM) by bovine thrombin (250 pM) alone and in the presence of horn fly saliva (equivalent to 2 flies)", "result": "it may be a competitive inhibitor, as its effect is diminished when substrate is unlimited (100 µM)"}
    ]}
  ]
}
